Results reported in the Immune Epitope Database (IEDB).

Key:
[1] = biological target: HLA-A*31:01; experiment: IEDB peptide-MHC binding, purified MHC/competitive/radioactivity; filed as Kd, often an IC50 or EC50 that approximates it; ≥ and ≤ were set here for values at or beyond the usual limits of such assays; conditions: source organism: Dengue virus 3 Martinique/1243/1999
[2] = biological target: HLA-B*58:01; experiment: as above
[3] = biological target: HLA-B*15:01; experiment: IEDB peptide-MHC binding, purified MHC/competitive/fluorescence; filed as Kd, often an IC50 or EC50 that approximates it; ≥ and ≤ were set here for values at or beyond the usual limits of such assays
[4] = biological target: HLA-B*40:01; experiment: as above
[5] = biological target: HLA-A*02:01; experiment: IEDB peptide-MHC binding, purified MHC/competitive/radioactivity; ≥ and ≤ were set here for values at or beyond the usual limits of such assays
[6] = biological target: HLA-A*32:01; experiment: IEDB peptide-MHC binding, purified MHC/competitive/radioactivity; filed as Kd, often an IC50 or EC50 that approximates it; ≥ and ≤ were set here for values at or beyond the usual limits of such assays
[7] = biological target: HLA-B*57:01; experiment: as above
[8] = biological target: HLA-B*07:02; experiment: IEDB peptide-MHC binding, purified MHC/competitive/fluorescence; ≥ and ≤ were set here for values at or beyond the usual limits of such assays
[9] = biological target: HLA-A*01:01; experiment: IEDB peptide-MHC binding, purified MHC/direct/fluorescence; filed as Kd, often an IC50 or EC50 that approximates it; ≥ and ≤ were set here for values at or beyond the usual limits of such assays; conditions: source organism: Reston ebolavirus - Reston
[10] = biological target: HLA-C*05:01; experiment: as above
[11] = biological target: HLA-A*02:01; experiment: IEDB peptide-MHC binding, purified MHC/competitive/fluorescence; filed as Kd, often an IC50 or EC50 that approximates it; ≥ and ≤ were set here for values at or beyond the usual limits of such assays
[12] = biological target: HLA-A*26:01; experiment: as above
[13] = biological target: HLA-B*15:17; experiment: as above; conditions: source organism: Reston ebolavirus - Reston (1989)
[14] = biological target: HLA-B*18:01; experiment: as above
[15] = biological target: HLA-B*27:03; experiment: as above
[16] = biological target: HLA-B*39:01; experiment: as above
[17] = biological target: HLA-B*46:01; experiment: as above
[18] = biological target: HLA-B*51:01; experiment: as above
[19] = biological target: HLA-B*57:01; experiment: as above; conditions: source organism: Reston ebolavirus - Reston (1989)
[20] = biological target: HLA-A*02:12; experiment: IEDB peptide-MHC binding, purified MHC/direct/fluorescence; filed as Kd, often an IC50 or EC50 that approximates it; ≥ and ≤ were set here for values at or beyond the usual limits of such assays; conditions: source organism: Choclo virus
[21] = biological target: HLA-A*02:16; experiment: as above; conditions: source organism: Choclo virus
[22] = biological target: HLA-A*02:19; experiment: as above; conditions: source organism: Choclo virus
[23] = biological target: HLA-A*03:01; experiment: as above; conditions: source organism: Choclo virus
[24] = biological target: HLA-A*68:02; experiment: as above; conditions: source organism: Choclo virus
[25] = biological target: HLA-A*69:01; experiment: IEDB peptide-MHC binding, purified MHC/competitive/fluorescence; filed as Kd, often an IC50 or EC50 that approximates it; ≥ and ≤ were set here for values at or beyond the usual limits of such assays; conditions: source organism: Orthohantavirus sinnombreense
[26] = biological target: HLA-B*58:01; experiment: as above
[27] = biological target: HLA-A*24:03; experiment: as above
[28] = biological target: HLA-A*01:01; experiment: IEDB peptide-MHC binding, purified MHC/competitive/radioactivity; filed as Kd, often an IC50 or EC50 that approximates it; ≥ and ≤ were set here for values at or beyond the usual limits of such assays; conditions: source organism: Dengue virus 2 Jamaica/1409/1983
[29] = biological target: HLA-A*26:01; experiment: as above; conditions: source organism: Dengue virus 2 Jamaica/1409/1983
[30] = biological target: HLA-A*30:02; experiment: as above; conditions: source organism: Dengue virus 2 Jamaica/1409/1983
[31] = biological target: HLA-A*03:01; experiment: IEDB peptide-MHC binding, purified MHC/competitive/fluorescence; ≥ and ≤ were set here for values at or beyond the usual limits of such assays
[32] = biological target: HLA-A*24:02; experiment: as above; conditions: source organism: Vaccinia virus Copenhagen
[33] = biological target: HLA-A*02:12; experiment: IEDB peptide-MHC binding, purified MHC/competitive/fluorescence; filed as Kd, often an IC50 or EC50 that approximates it; ≥ and ≤ were set here for values at or beyond the usual limits of such assays; conditions: source organism: Vibrio cholerae 2740-80
[34] = biological target: HLA-A*02:19; experiment: as above; conditions: source organism: Vibrio cholerae 2740-80
[35] = biological target: HLA-A*03:01; experiment: as above; conditions: source organism: Vibrio cholerae 2740-80
[36] = biological target: HLA-A*68:02; experiment: as above; conditions: source organism: Vibrio cholerae 2740-80
[37] = biological target: HLA-B*07:02; experiment: as above
[38] = biological target: HLA-A*11:01; experiment: IEDB peptide-MHC binding, purified MHC/competitive/fluorescence; ≥ and ≤ were set here for values at or beyond the usual limits of such assays; conditions: source organism: Vaccinia virus
[39] = biological target: HLA-A*23:01; experiment: IEDB peptide-MHC binding, purified MHC/direct/fluorescence; filed as Kd, often an IC50 or EC50 that approximates it; ≥ and ≤ were set here for values at or beyond the usual limits of such assays; conditions: source organism: Vibrio vulnificus CMCP6
[40] = biological target: HLA-A*24:03; experiment: as above; conditions: source organism: Vibrio vulnificus CMCP6
[41] = source organism: Dengue virus 3 Martinique/1243/1999
[42] = source organism: Salmonella enterica subsp. enterica serovar Typhi
[43] = source organism: Zaire ebolavirus
[44] = source organism: Reston ebolavirus - Reston (1989)
[45] = source organism: Orthohantavirus sinnombreense
[46] = source organism: Dengue virus 2 Jamaica/1409/1983
[47] = source organism: Vaccinia virus Copenhagen
[48] = source organism: Vibrio cholerae 2740-80
[49] = source organism: Dengue virus 1 Brazil/97-11/1997
[50] = source organism: Dengue virus 1 Singapore/S275/1990
[51] = source organism: Vaccinia virus
[52] = source organism: Escherichia coli
[53] = source organism: Human papillomavirus 16

Q: Which results are given for AASAAQRRGR?
A: Kd [1]: 0.165 µM; Kd [2, 41]: 0.0187 µM

Q: For AELFVAHYM, which Kd [3, 42] is on record?
A: ≥ 20 µM

Q: And the Kd [4, 42]?
A: 0.0108 µM

Q: With AIMEKNIML as the sequence, how does the IC50 ([5]; source organism: Influenza A virus (A/Alaska/6/1977(H3N2))) read?
A: 0.104 µM

Q: What does the source list for ATLLVWHTW?
A: Kd [6, 41]: 0.00268 µM; Kd [7, 41]: 0.0021 µM; Kd [2, 41]: 0.00169 µM

Q: For EPVVFSTSD, which IC50 [8, 43] is on record?
A: ≥ 144 µM

Q: How did the Kd [9] turn out when FSDLCNFLI was run?
A: 0.153 µM

Q: What about the Kd [10, 44] of the same sequence?
A: 0.009 µM

Q: What about the Kd [11, 44] of the same sequence?
A: ≥ 20 µM

Q: And the Kd [12, 44]?
A: ≥ 20 µM

Q: And the Kd [3, 44]?
A: ≥ 20 µM

Q: What about the Kd [13] of the same sequence?
A: ≥ 20 µM

Q: What about the Kd [14, 44] of the same sequence?
A: ≥ 20 µM

Q: And the Kd [15, 44]?
A: ≥ 20 µM

Q: And the Kd [16, 44]?
A: ≥ 20 µM

Q: What about the Kd [17, 44] of the same sequence?
A: ≥ 20 µM

Q: And the Kd [18, 44]?
A: ≥ 20 µM

Q: And the Kd [19]?
A: ≥ 20 µM

Q: Which Kd [20] does the source give for GSFRKICGF here?
A: ≥ 20 µM

Q: What about the Kd [21] of the same sequence?
A: ≥ 20 µM

Q: What about the Kd [22] of the same sequence?
A: ≥ 20 µM

Q: And the Kd [23]?
A: ≥ 20 µM

Q: What about the Kd [24] of the same sequence?
A: ≥ 20 µM

Q: And the Kd [11, 45]?
A: ≥ 20 µM

Q: And the Kd [12, 45]?
A: ≥ 20 µM

Q: And the Kd [25]?
A: ≥ 20 µM

Q: And the Kd [3, 45]?
A: ≥ 20 µM

Q: What about the Kd [14, 45] of the same sequence?
A: ≥ 20 µM

Q: And the Kd [15, 45]?
A: ≥ 20 µM

Q: What about the Kd [16, 45] of the same sequence?
A: ≥ 20 µM

Q: What about the Kd [17, 45] of the same sequence?
A: ≥ 20 µM

Q: And the Kd [18, 45]?
A: ≥ 20 µM

Q: What about the Kd [26, 45] of the same sequence?
A: 0.251 µM

Q: Which Kd ([27]; source organism: Escherichia coli APEC O1) does the source give for HYGTEGQEF here?
A: 0.0029 µM

Q: With IPSATKRWG as the sequence, how does the IC50 ([8]; source organism: Sudan ebolavirus) read?
A: 49.6 µM

Q: With ITASILLWY as the sequence, how does the Kd [28] read?
A: 0.0472 µM

Q: What about the Kd [29] of the same sequence?
A: 0.00566 µM

Q: What about the Kd [30] of the same sequence?
A: 0.55 µM

Q: What about the Kd [2, 46] of the same sequence?
A: 0.0028 µM

Q: Which results are given for IVFYRSGTE?
A: IC50 [31, 47]: ≥ 85.9 µM; IC50 [32]: ≥ 6580 µM; IC50 [8, 47]: ≥ 223 µM

Q: How did the Kd [33] turn out when KQLPPLAAW was run?
A: ≥ 20 µM

Q: And the Kd [34]?
A: ≥ 20 µM

Q: What about the Kd [35] of the same sequence?
A: ≥ 20 µM

Q: What about the Kd [12, 48] of the same sequence?
A: ≥ 20 µM

Q: What about the Kd [36] of the same sequence?
A: ≥ 20 µM

Q: What about the Kd [14, 48] of the same sequence?
A: 6.33 µM

Q: And the Kd [15, 48]?
A: ≥ 20 µM

Q: And the Kd [16, 48]?
A: ≥ 20 µM

Q: What about the Kd [17, 48] of the same sequence?
A: ≥ 20 µM

Q: And the Kd [18, 48]?
A: ≥ 20 µM

Q: With KSWPLNEGI as the sequence, how does the Kd [6, 49] read?
A: 0.34 µM

Q: What about the Kd [2, 49] of the same sequence?
A: 0.0703 µM

Q: What does the source list for KTVWFVPSI?
A: Kd [6, 46]: 0.00669 µM; Kd [2, 46]: 0.00432 µM

Q: With LESAIGLPM as the sequence, how does the Kd ([4]; source organism: Shigella flexneri 5 str. 8401) read?
A: 0.0072 µM

Q: LKNDLLENLQ was tested. Which IC50 ([8]; source organism: Influenza A virus (A/Victoria/1968(H3N2))) did it give?
A: ≥ 495 µM

Q: Which IC50 ([5]; source organism: Hepacivirus hominis) does the source give for LLALLSCLTI here?
A: 0.385 µM

Q: With LPYPYSSSA as the sequence, how does the Kd ([37]; source organism: Shigella boydii CDC 3083-94) read?
A: 0.0796 µM

Q: Which results are given for LSAAIGKAW?
A: Kd [7, 50]: 0.0019 µM; Kd [2, 50]: 0.00292 µM

Q: For LVRSETKQK, which IC50 [31, 51] is on record?
A: 5.02 µM

Q: And the IC50 [38]?
A: 7.02 µM

Q: And the IC50 [8, 51]?
A: 34.6 µM

Q: Which Kd ([4]; source organism: Escherichia coli 536) does the source give for MEIKILHKQ here?
A: ≥ 20 µM

Q: Which Kd ([4]; source organism: Bacillus anthracis str. A0488) does the source give for MENLMYALL here?
A: 0.0284 µM

Q: With MFVSNRWFL as the sequence, how does the Kd [39] read?
A: 0.002 µM

Q: What about the Kd [40] of the same sequence?
A: 0.005 µM

Q: How did the Kd [7, 41] turn out when NASDRMGMGV was run?
A: 0.722 µM

Q: What about the Kd [2, 41] of the same sequence?
A: 0.209 µM

Q: With NLGNLNVSI as the sequence, how does the IC50 ([5]; source organism: Hepatitis B virus subtype ayw) read?
A: 0.076 µM

Q: With NPIVPSFDM as the sequence, how does the IC50 ([8]; source organism: Influenza A virus (A/Oklahoma/309/2006(H3N2))) read?
A: 1.23 µM

Q: Which IC50 [8, 43] does the source give for PSGSTSPRM here?
A: ≥ 202 µM

Q: Which Kd [7, 46] does the source give for QSSITEAELT here?
A: 0.351 µM

Q: What about the Kd [2, 46] of the same sequence?
A: 0.436 µM

Q: For QYVLMPGKV, which Kd [27, 52] is on record?
A: 2.58 µM

Q: Which Kd [10, 52] does the source give for RAMACSALI here?
A: 0.347 µM

Q: And the Kd [11, 52]?
A: 0.0261 µM

Q: What about the Kd [18, 52] of the same sequence?
A: 2.97 µM

Q: And the Kd [26, 52]?
A: 0.0129 µM

Q: RAQDPPPEL was tested. Which Kd ([10]; source organism: Homo sapiens) did it give?
A: 0.663 µM

Q: How did the IC50 ([5]; source organism: Human immunodeficiency virus 1) turn out when SLYNAIATL was run?
A: 0.036 µM

Q: For TLIDVCPI, which IC50 [5, 53] is on record?
A: 0.033 µM

Q: For TVILGVLLL, which IC50 ([5]; source organism: Homo sapiens) is on record?
A: 0.847 µM

Q: With VLLLWITAA as the sequence, how does the IC50 [5, 53] read?
A: 0.011 µM

Q: With VLPSPACQLV as the sequence, how does the IC50 ([5]; source organism: Homo sapiens) read?
A: 0.5 µM

Q: Which Kd ([37]; source organism: Influenza A virus) does the source give for VPRYAFAM here?
A: ≤ 0.001 µM

Q: Which results are given for VSSVNMISRM?
A: Kd [7, 46]: 0.626 µM; Kd [2, 46]: 0.698 µM
